The text below walks through data of article doi:10.1101/2020.04.26.062372.

Assay [1] addresses GLP-1R-SmBiT (glucagon-like peptide-1 receptor tagged at the C-terminus with SmBiT) (UniProt P43220). The assay is described as follows: split reporter.
Assay [2] addresses GIPR-SmBiT (glucose-dependent insulinotropic polypeptide receptor tagged at the C-terminus with SmBiT) (UniProt P48546). Nature of the assay: split reporter.
UniProt P48546, sequence (P48546 22-466): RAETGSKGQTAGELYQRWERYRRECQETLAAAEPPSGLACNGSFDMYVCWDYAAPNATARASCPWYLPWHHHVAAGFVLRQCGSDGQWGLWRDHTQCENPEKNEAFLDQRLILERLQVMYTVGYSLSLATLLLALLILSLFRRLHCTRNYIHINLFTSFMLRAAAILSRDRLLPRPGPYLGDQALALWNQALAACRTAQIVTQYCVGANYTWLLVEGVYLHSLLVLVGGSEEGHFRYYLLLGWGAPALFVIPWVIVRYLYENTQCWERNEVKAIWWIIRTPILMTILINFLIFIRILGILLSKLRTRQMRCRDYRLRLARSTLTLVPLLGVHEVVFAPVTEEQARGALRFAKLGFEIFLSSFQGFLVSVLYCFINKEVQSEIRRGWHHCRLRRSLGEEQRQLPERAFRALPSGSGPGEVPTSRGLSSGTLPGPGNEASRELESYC

UniProt P43220, sequence (P43220 24-463): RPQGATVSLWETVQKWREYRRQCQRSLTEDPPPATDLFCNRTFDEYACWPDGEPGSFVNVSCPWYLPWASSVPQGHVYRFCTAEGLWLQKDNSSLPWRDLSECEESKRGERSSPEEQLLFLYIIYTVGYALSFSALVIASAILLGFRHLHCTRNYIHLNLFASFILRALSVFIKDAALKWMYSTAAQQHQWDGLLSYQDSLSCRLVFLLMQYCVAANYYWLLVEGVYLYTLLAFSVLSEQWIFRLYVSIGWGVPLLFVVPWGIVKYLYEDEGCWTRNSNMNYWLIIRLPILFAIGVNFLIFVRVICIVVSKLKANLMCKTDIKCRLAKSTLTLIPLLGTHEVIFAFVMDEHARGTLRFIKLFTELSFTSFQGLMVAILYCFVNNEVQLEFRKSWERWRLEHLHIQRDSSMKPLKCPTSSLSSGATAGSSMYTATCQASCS

Turning to LgBiT-mini-Gs, the t1/2 of ligand-induced recruitment was 1.5 min in assay [1] and 7.1 min in assay [2].
